Measured values published in the supplement of paper PMC10126150.
± gives the standard deviation of the averaged measurements.

Test system: ATP
Test: switch fluorescence ratio, 500 uM ATP over buffer (Cy3 cluster intensity, sum of 5 cycles each) (fold (ratio)); higher = stronger signal-on switching upon ATP binding; sequences stand for … in TCGTCGGCAGCGTCAGATGTGTATAAGAGACAGTTTTTTTTTTTTTTTTTTTTTTTTT…TC
Conditions: aptamer strand: ATP DNA aptamer (quencher-CACCTGGGGGAGTATTGCGGAGGAAGG + anchor), 100 nM annealed; ATP concentration: 500 uM
In short: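 Five buffer/ATP imaging cycles were run on Cy3-labelled switching-strand clusters on a modified Illumina MiSeq flow-cell, with NaOH stripping and re-annealing between cycles. In each cycle, clusters annealed to 100 nM quencher-labelled ATP aptamer were imaged in selection buffer, then after 15 min with 500 uM ATP at 22 °C. Per cluster, the fluorescence ratio is summed target-cycle over summed buffer-cycle Cy3 intensity, averaged per switch-domain sequence. Only clusters within 100-1000 RFU were kept.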
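Also: ATP exposure 15 min at 22 °C before imaging.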

Sequence	switch fluorescence ratio
CATATTGCTT	0.993 ± 0.028
CATATTGGTC	1 ± 0.062
CATATTTGGG	0.981 ± 0.081
CATATTTTGT	1.0216 ± 0.00042
CATATTTTTG	0.996 ± 0.013
CATCAATGTG	0.997 ± 0.052
CATCAGGATG	1.01 ± 0.031
CATCAGGGTT	0.974 ± 0.013
CATCAGTGGT	1.03 ± 0.032
CATCATGGTC	1.03 ± 0.054
CATCATTGGG	0.993 ± 0.016
CATCCGGGGT	2.04 ± 0.57
CATCCTGAAT	1.08 ± 0.027
CATCGGCTCA	1.12 ± 0.067
CATCGGGGTA	1.02 ± 0.029
CATCGTGGGT	0.975 ± 0.027
CATCTCATAT	1.02 ± 0.028
CATCTGTG	1.03 ± 0.016
CATCTTATGA	0.99 ± 0.0043
CATCTTGAAT	1 ± 0.046
CATGATGAGA	0.969 ± 0.035
CATGATTATT	0.986 ± 0.024

Sequence	switch fluorescence ratio
CATGCACACT	1.11 ± 0.053
CATGCACCGG	0.986 ± 0.05
CATGCAGATA	1.006 ± 0.0094
CATGCCAGAT	0.994 ± 0.028
CATGCGTTTT	1.04 ± 0.043
CATGCTACGG	1.01 ± 0.016
CATGCTAGAG	0.99 ± 0.025
CATGCTGGGG	0.9941 ± 0.0022
CATGGAAGGC	0.957 ± 0.03
CATGGCCTTA	0.972 ± 0.0097
CATGGGAGGG	1.01 ± 0.029
CATGGGAGGT	0.9711 ± 0.0067
CATGGGCGGG	0.983 ± 0.022
CATGGGGAGT	0.969 ± 0.024
CATGGGGGGG	0.982 ± 0.043
CATGGGGGTG	1 ± 0.021
CATGGGTTAT	0.981 ± 0.05
CATGTAGGCA	0.99 ± 0.046
CATGTCGACT	0.988 ± 0.046
CATGTCGGCA	1 ± 0.019
CATGTGACCA	0.988 ± 0.038
CATGTGATGG	1.06 ± 0.044

Sequence	switch fluorescence ratio
CATGTGATTT	0.992 ± 0.023
CATGTGGGGA	1.021 ± 0.004
CATGTGGGTA	0.981 ± 0.053
CATGTGGTGG	0.998 ± 0.039
CATGTGTTTT	0.9744 ± 0.0041
CATGTTGGAT	0.964 ± 0.029
CATGTTTCTA	0.995 ± 0.02
CATTAAAATT	0.994 ± 0.028
CATTAACAGG	1.03 ± 0.021
CATTAAGGCT	1.01 ± 0.071
CATTAGATGC	1.06 ± 0.056
CATTAGCGAT	1.5 ± 0.091
CATTAGGGGG	1.04 ± 0.037
CATTAGTCTC	1.02 ± 0.053
CATTAGTTGG	1.006 ± 0.0052
CATTATCTGG	1.01 ± 0.072
CATTATGCGG	1 ± 0.025
CATTATTGGC	1.06 ± 0.025
CATTCATGAT	0.9858 ± 0.0086
CATTCGCTGA	1.92 ± 0.19
CATTCTTTTT	1.02 ± 0.049
CATTGACATA	1.07 ± 0.034

Sequence	switch fluorescence ratio
CATTGAGTTG	0.973 ± 0.018
CATTGCAGAT	0.981 ± 0.037
CATTGCAGTT	1.01 ± 0.026
CATTGCCCGT	0.989 ± 0.017
CATTGCGATT	1.13 ± 0.14
CATTGGGAGA	0.984 ± 0.011
CATTGGGGCG	0.926 ± 0.019
CATTGGTCGC	0.997 ± 0.035
CATTGGTGGC	0.992 ± 0.1
CATTGGTGGG	0.977 ± 0.028
CATTGTTAGG	1.01 ± 0.004
CATTTAATTC	1.04 ± 0.014
CATTTAGGGA	1.01 ± 0.029
CATTTATAAA	0.992 ± 0.011
CATTTATTAG	0.964 ± 0.0063
CATTTCAGGA	1.004 ± 0.0027
CATTTCTAGA	0.9709 ± 0.0055
CATTTGGGTC	1.013 ± 0.0038
CATTTGGGTT	1.03 ± 0.059
